As a reminder, the EC50 is the concentration at which the effect is half-maximal. As a reminder, the EC50 (read off the curve) is the concentration needed to bring the measured effect to its halfway point. What is called Kd is the free concentration of one partner at which half of the binding sites on the other are occupied at equilibrium, for simple one-to-one binding. A word on the IC50: it is the concentration needed to halve the response being measured.

Experiment [1] deals with T1, cynomolgus monkey PD-L1 on 293F cells (W315-293F.cynoPro1.2A2) (cynomolgus monkey, UniProt G7PSE7 19-290).
T1 construct: whole, on cells; also called cell surface monkey PD-L1; cynoPD-L1
Put plainly: FACS on cynomolgus PD-L1 293F cells. The method, then:
After washing with 1×PBS/1% BSA, the secondary antibody PE-labeled goat anti-human IgG was applied and incubated with cells at 4° C. for 1 hour. […] Human IgG1 and IgG4 isotype antibodies were used as negative control. The cells were then washed and resuspended in 1×PBS/1% BSA. MFI of the cells was measured by a flow cytometer (BD) and analyzed by FlowJo (version 7.6.1).

Experiment [2] deals with PD-L1 (target of the serum stability flow cytometry). The experiment is described as follows: flow cytometry binding to PD-L1 of AP3R2-1A3-z12-hIgG1 kept 0, 1, 4, 7 or 14 days in human serum at 37 C. The method, then:
Fresh human serum was prepared from healthy donor by centrifugation. Testing antibody was mixed with serum and ensure the serum content >90% of total volume. The mix aliquots were incubated at 37° C. for 0 day, 1 day, 4 days, 7 days and 14 days, respectively. At the indicated time point the samples were quickly-frozen in liquid nitrogen and stored at −80° C. until analysis. The bindings to PD-L1 of the aliquots at above time points were evaluated by flow cytometry, respectively.
On the technique in general: Flow cytometry measures light scatter and fluorescence of single cells or particles in a stream.

Experiment [3] addresses T1, cynomolgus monkey PD-L1 on 293F cells …. The experiment is described as follows: FACS affinity on cynomolgus PD-L1 cells, quantitative beads. The method, then:
(§1) Binding affinities of testing antibodies to cell surface human, cynomolgus and mouse PD-L1 were determined by flow cytometry on the engineering cell lines, respectively. The cells were transferred in to 96-well U-bottom plates (BD) at a density of 5×10⁴ cells/well. Antibodies to be tested were 1: 2-fold serially diluted in 1% BSA/1×PBS and incubated with cells at 4° C. for 1 hr. Then, the plates were centrifuged at 1500 rpm for 4 mins and the supernatant was discarded. The secondary antibody, Alexa647 conjugated goat anti-human IgG Fc (Jackson, Cat No. 109-605-098, Lot No. 121363), was added to re-suspend cells and incubated at 4° C. in the dark for 30 min. The cells were washed once and re-suspended in 100 μL 1% BSA/1×PBS, then measured by flow cytometry (BD Canto II) and analyzed by FlowJo. Fluorescence intensity was converted to bound molecules/cell based on the quantitative beads (Quantum™ MESF Kits, Bangs Laboratories). KD value was calculated by Graphpad Prism5.

The target in experiment [4] is T2, mouse PD-L1 on 293F cells (W315-293F.mPro1.C1) (mouse, UniProt Q9EP73 19-290).
T2 construct: whole, on cells; also called cell surface mouse PD-L1; Mouse PD-L1-expressing 293F cell
The experiment is described as follows: FACS competition: antibody titrated against 5 ug/mL mouse PD-1 ECD mFc on mouse PD-L1 293F cells. The method, then:
Mouse PD-L1 transfected W315-293F.mPro1.C1 cells were transferred into 96-well U-bottom plates at a density of 2×10⁵ cells/well. […] After washing with 1×PBS/1% BSA, the secondary antibody PE-labeled goat anti-mouse IgG was applied and incubated with cells at 4° C. for 1 hour. […] Human IgG1 and IgG4 isotype antibodies were used as negative control. The cells were then washed and resuspended in 1×PBS/1% BSA. MFI of the cells was measured by a flow cytometer (BD) and analyzed by FlowJo (version 7.6.1).

The target of experiment [5] is T3, human PD-L1 on CHO-K1 cells (W315-CHO-K1.hPro1.C11) (human, UniProt Q9NZQ7 19-290).
T3 construct: whole, on cells; also called cell surface human PD-L1; Human PD-L1-expressing CHO-K1 cell
Put plainly: FACS affinity on human PD-L1 cells, quantitative beads. The method, then:
as §1

Experiment [6] deals with T2, mouse PD-L1 on 293F cells …. The experiment is described as follows: FACS affinity on mouse PD-L1 cells, quantitative beads. The protocol:
as §1

T2 sequence (Q9EP73 19-290): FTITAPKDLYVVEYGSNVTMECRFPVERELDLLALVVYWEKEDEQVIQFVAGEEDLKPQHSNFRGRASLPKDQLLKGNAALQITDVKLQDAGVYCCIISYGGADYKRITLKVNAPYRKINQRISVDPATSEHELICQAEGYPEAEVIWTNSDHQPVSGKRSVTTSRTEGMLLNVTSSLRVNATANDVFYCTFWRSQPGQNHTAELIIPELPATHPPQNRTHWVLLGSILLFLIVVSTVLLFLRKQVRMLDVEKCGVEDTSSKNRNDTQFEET
T1 sequence (G7PSE7 entry or part of it): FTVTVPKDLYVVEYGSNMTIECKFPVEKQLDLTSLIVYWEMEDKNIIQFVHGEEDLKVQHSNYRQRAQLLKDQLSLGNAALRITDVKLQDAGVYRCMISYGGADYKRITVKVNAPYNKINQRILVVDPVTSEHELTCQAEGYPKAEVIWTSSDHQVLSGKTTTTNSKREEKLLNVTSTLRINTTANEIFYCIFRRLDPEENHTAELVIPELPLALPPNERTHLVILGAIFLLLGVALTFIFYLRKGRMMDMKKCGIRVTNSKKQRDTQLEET
Sequence of PD-L1 (target of the serum stability flow cytometry) (chain, as listed by the source): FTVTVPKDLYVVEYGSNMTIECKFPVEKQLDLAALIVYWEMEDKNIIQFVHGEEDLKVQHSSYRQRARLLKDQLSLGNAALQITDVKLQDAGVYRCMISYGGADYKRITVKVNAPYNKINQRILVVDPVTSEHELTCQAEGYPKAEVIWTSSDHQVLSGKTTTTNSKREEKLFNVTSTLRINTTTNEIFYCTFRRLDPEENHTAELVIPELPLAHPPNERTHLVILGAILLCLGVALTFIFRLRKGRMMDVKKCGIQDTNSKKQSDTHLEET
T3 sequence (Q9NZQ7 19-290): as the sequence (chain, as listed by the source) above

B1: AP3R2-1A3-z12-hIgG1 (Fc fusion)
chain: EVQLVESGGGLVQPGGSLRLSCAASGHFSNLAVNWFRQAPGKERELVAGILWSGGSTFYADSVKGRFTISRGNAENMLYLQMNSLRAEDTAVYYCNTGTNWGQGTLVTVSS
notes: VHH-Fc (hIgG1) fusion of the humanized VHH; also called W3156-AP3R2-1A3-z12-hIgG1; W3156 antibody; not shown: Fc of human IgG1
Molecule B1 returned an EC50 in experiment [1] of 2.06 nM. The “EC50 (read off the curve)” value in experiment [2] is roughly 0.7 nM. Besides, the dissociation constant (Kd) in experiment [3] came to 7.3 nM; in experiment [5], 0.26 nM; in experiment [6] it was 0.69 nM. Also, the IC50 in experiment [4] came out at 2.14 nM.

Source of the values: patent publication US20220403031A1 (WUXI BIOLOGICS IRELAND, published 2022).
